Results as given in the supplement of paper PMC10724198.
± gives the standard deviation of the averaged measurements.

Tested on: Saccharomyces cerevisiae
Test: protein stability index of tFT-peptide fusion (C-terminal peptide) (PSI (0-1 scale)); higher = more stable (slower turnover)
Settings: genetic background: wild type; temperature: 30 C
Procedure: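 Multiplexed protein stability (MPS) profiling in S. cerevisiae. Random 12-aa peptides (tFT-X12 library) are fused to the C-terminus of a sfGFP-mCherry tandem fluorescent timer, after mCherry and a GGGS linker. Cells are FACS-sorted into 8 mCherry/sfGFP bins and deep-sequenced. The protein stability index (PSI) is the read-weighted bin average, scaled from 0 (unstable) to 1 (stable). Only peptides with >10 reads are reported; cells were grown at 30 °C in SC-His with glucose.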
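Further: PSI is a weighted mean of sequencing reads over stability bins, variants kept only with over 10 reads, mCherry proximal and sfGFP distal, peptide attached via GGGS linker.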

| Sequence | protein stability index |
| --- | --- |
| VFPPLSRLLPGP | 0.699 ± 0.1 |
| APPLSLPPRLFL | 0.69 ± 0.035 |
| DQAWYFVRLAGD | 0.766 ± 0.2 |
| EGAGGVEGAAWG | 0.7 ± 0.018 |
| EKLEGRKIIKKK | 0.6927 ± 0.006 |
| LGFNRRSKTRMI | 0.704 ± 0.014 |
| MFTFIQRPVAQV | 0.6357 ± 0.0054 |
| LLPPALPESPPP | 0.649 ± 0.0072 |
| PFLLFVSSTCPL | 0.605 ± 0.024 |
| ASATCQKGSIPR | 0.677 ± 0.036 |
| IDLTLLRHPAYL | 0.732 ± 0.05 |
| KLTKAQPRMPLL | 0.702 ± 0.027 |
| PRPLPPPPPLST | 0.654 ± 0.061 |
| PAFCLTRAPSTQ | 0.72 ± 0.071 |
| LWSSRPGFDDVW | 0.6426 ± 0.0011 |
| KKKHKNNIQKKK | 0.6129 ± 0.0017 |
| VPPHPFFPLPPP | 0.788 ± 0.099 |
| EGGIKGKKVRTW | 0.66 ± 0.0087 |
| PFPPHSPPSAPS | 0.697 ± 0.0093 |
| IGSEGGKNGRRK | 0.616 ± 0.044 |
| RLCDAAVGPEGG | 0.674 ± 0.05 |
| SGMGGCRKGFEG | 0.717 ± 0.011 |
| SGVPGGSVGVPG | 0.661 ± 0.028 |
| NKNTEMNKTQWR | 0.702 ± 0.03 |
| RPSPMPTATPAT | 0.701 ± 0.029 |

| Sequence | protein stability index |
| --- | --- |
| GQMYTLATSAVV | 0.602 ± 0.076 |
| RGPGKKQIISQK | 0.741 ± 0.02 |
| SPPAPLPPPLPR | 0.648 ± 0.025 |
| HFSDLIRFFFFA | 0.579 ± 0.064 |
| DPRHDNRYPRVR | 0.617 ± 0.16 |
| PAPPPHSAPPLP | 0.739 ± 0.024 |
| YGGGVWRGVALG | 0.6914 ± 0.0052 |
| TDFAVTKDFTEI | 0.683 ± 0.033 |
| APRPRSPLLPPA | 0.648 ± 0.019 |
| WTPGTPVFSKGI | 0.714 ± 0.035 |
| RVKNVDAVKKHK | 0.635 ± 0.0088 |
| QKVNKDTRTSEF | 0.709 ± 0.014 |
| QSAPWPSPLSFS | 0.718 ± 0.019 |
| PPPPRTLASPSY | 0.679 ± 0.026 |
| DVAPPFLSFFVV | 0.62 ± 0.011 |
| RVRWRSQRSMVV | 0.689 ± 0.025 |
| VGGGASGVGRSG | 0.63009 ± 0.00033 |
| VRVALISDRGKQ | 0.738 ± 0.025 |
| VVVIGVWGGGVG | 0.612 ± 0.019 |
| PPLLPPPPAFVF | 0.668 ± 0.0069 |
| TGDFFGGLGTWS | 0.701 ± 0.016 |
| GFILTVAPNLEH | 0.648 ± 0.031 |
| QGEARRPPSPGR | 0.638 ± 0.19 |
| PRAPPPSPPPRP | 0.651 ± 0.04 |
| FLVNVIRSCKGE | 0.685 ± 0.059 |

| Sequence | protein stability index |
| --- | --- |
| QESGPEAGIPPL | 0.7222 ± 0.003 |
| IDSWWLPSDLKV | 0.835 ± 0.017 |
| FGVTGLGVGLVW | 0.639 ± 0.0066 |
| GILYFPAGHHAG | 0.627 ± 0.035 |
| CGLMIFSRSYRF | 0.704 ± 0.033 |
| PRPALRPLPVYP | 0.612 ± 0.068 |
| TRRGAAAEDQEK | 0.697 ± 0.065 |
| RNLRFEVLAVVI | 0.5272 ± 0.0049 |
| LLSVVLPDSSLP | 0.738 ± 0.065 |
| YNYADVCTNESP | 0.7 ± 0.022 |
| DPLLYLCLGSQC | 0.676 ± 0.017 |
| SRPPAPPPLPAP | 0.726 ± 0.025 |
| LLALQCSLFTPH | 0.678 ± 0.15 |
| KKEKKKTKKWQE | 0.694 ± 0.1 |
| RGSWSDEFWREG | 0.84 ± 0.056 |
| GLVSSDVGFRGY | 0.73 ± 0.019 |
| FSYPPSLVPFCS | 0.702 ± 0.019 |
| CVLAPPHRRAPS | 0.699 ± 0.031 |
| PPSRLYFLSPRS | 0.746 ± 0.039 |
| VNQSCPRPTPFV | 0.67 ± 0.051 |
| QKRKKQNKDGGT | 0.716 ± 0.042 |
| APGACWKERWVR | 0.737 ± 0.037 |
| EARGPGPVGGGT | 0.702 ± 0.085 |
| AKEIVYAPRNPD | 0.645 ± 0.053 |
| LFFLLPSSPIGF | 0.705 ± 0.011 |

| Sequence | protein stability index |
| --- | --- |
| GTGGRMIRWGLG | 0.667 ± 0.061 |
| KKERSTKTNRNV | 0.635 ± 0.0072 |
| KKDQEKEKKGKE | 0.613 ± 0.015 |
| SGFQIRVPVFMG | 0.619 ± 0.0095 |
| PYIKDRYSPANN | 0.781 ± 0.062 |
| ERKKIKDKIKKN | 0.702 ± 0.051 |
| CGVGWGMVEGWR | 0.691 ± 0.016 |
| SPPPPSRPTLPP | 0.593 ± 0.011 |
| RWRRGGRRAPWP | 0.62 ± 0.012 |
| PSPPPPLAPCLP | 0.666 ± 0.038 |
| EIGSWKTISILV | 0.487 ± 0.024 |
| RVHEMSLGPIRL | 0.715 ± 0.036 |
| LFHFLSPVALPS | 0.6649 ± 0.0041 |
| ITRAVLPARLFR | 0.705 ± 0.013 |
| LRWGLFSLAWVT | 0.5437 ± 0.00065 |
| SPCARPPPFPAR | 0.724 ± 0.034 |
| HQYSRHASIRTL | 0.623 ± 0.06 |
| SPSPHPQPLIPL | 0.681 ± 0.03 |
| FGQERLHMSILF | 0.692 ± 0.029 |
| HVLRVWKMCVLE | 0.586 ± 0.033 |
| WFCSVICGVFSV | 0.5678 ± 0.00093 |
| VRCKGLGLAVCA | 0.541 ± 0.062 |
| PPCPSPPLFLPS | 0.687 ± 0.063 |
| INIKKKKKIQHI | 0.564 ± 0.016 |
| GGSSEKVLCIWR | 0.7246 ± 0.0014 |

| Sequence | protein stability index |
| --- | --- |
| GRPHRYWRVVPY | 0.68 ± 0.036 |
| RLFSFPPPPTPP | 0.705 ± 0.011 |
| RKNNKKKENKKK | 0.7954 ± 0.0014 |
| AGGGLGGGGGGP | 0.729 ± 0.031 |
| WFVCVARCPFPF | 0.623 ± 0.035 |
| PTSLPAPPRLPF | 0.713 ± 0.023 |
| RSGFTSSPLRSG | 0.681 ± 0.034 |
| PEHGPWLFKGFF | 0.653 ± 0.025 |
| GRIPELVWWLDD | 0.76 ± 0.037 |
| TSLIPPASPFAW | 0.643 ± 0.11 |
| LASVLRESRIST | 0.671 ± 0.0078 |
| RLGLVVRPCSPP | 0.6864 ± 0.0015 |
| PLPPPPRLRCSS | 0.649 ± 0.069 |
| LLPPPSTPPRLI | 0.716 ± 0.052 |
| AAALPSNLLSSF | 0.656 ± 0.017 |
| GGGGGGSRVWSA | 0.698 ± 0.083 |
| RLPVPAAFSSSI | 0.79 ± 0.047 |
| WRSSSFFPAAVG | 0.6715 ± 0.0042 |
| PPPPPPRRSSPP | 0.681 ± 0.069 |
| VVRLEGGSGAVW | 0.703 ± 0.0085 |
| RQTTTPHDRDGR | 0.566 ± 0.049 |
| SLSLFYFRFFPF | 0.661 ± 0.05 |
| PPPPAPSPPIPP | 0.692 ± 0.037 |
| SLWLRLAIPSRY | 0.68862 ± 0.00061 |
| PSLPHSRPRTPT | 0.707 ± 0.028 |

| Sequence | protein stability index |
| --- | --- |
| ERLACRFRTVVM | 0.595 ± 0.053 |
| CCSSCFVLSKAA | 0.6463 ± 0.0031 |
| PSHPLSLFLLFL | 0.58 ± 0.007 |
| HDVGEYVKKNRF | 0.653 ± 0.011 |
| PPAPPPPSTPHP | 0.672 ± 0.13 |
| QSPPILVPSSDV | 0.686 ± 0.067 |
| AERARRERRGGV | 0.712 ± 0.1 |
| VHWAALRSVLRG | 0.699 ± 0.047 |
| NYRGEKYDKREH | 0.569 ± 0.11 |
| LFGHMENNLLKS | 0.722 ± 0.046 |
| VVGSAGGGGFVL | 0.6717 ± 0.0065 |
| GRLLCFLFCCSS | 0.603 ± 0.035 |
| GGPGGGGVSDGM | 0.804 ± 0.14 |
| PGVIFRLPSCFV | 0.652 ± 0.061 |
| RFEFFHLVSWLL | 0.644 ± 0.052 |
| PSLSSHPALLFI | 0.752 ± 0.038 |
| KNKFSTWDNEVN | 0.718 ± 0.041 |
| LLPLPPPPPPPP | 0.685 ± 0.063 |
| FSAFFLFMFCFL | 0.488 ± 0.025 |
| FSGGPSTPPTWS | 0.817 ± 0.01 |
| PRIWDLVDIGTL | 0.735 ± 0.022 |
| PPPPPPPPPPPP | 0.627 ± 0.031 |
| AVVVWGGGWWWA | 0.78 ± 0.15 |
| WVPCGYIERAPL | 0.582 ± 0.05 |
| GGFVVGGGGWLG | 0.733 ± 0.033 |

| Sequence | protein stability index |
| --- | --- |
| RLSGRRLVNYRP | 0.641 ± 0.036 |
| PPAPTHSAPSQI | 0.655 ± 0.07 |
| SLPFSPSFLSSF | 0.67 ± 0.015 |
| EVWGGVCWRAGG | 0.735 ± 0.12 |
| VCVLGGVWGCRG | 0.66 ± 0.072 |
| HTEYQGAGIPDE | 0.752 ± 0.037 |
| RDPERYAQLTAP | 0.776 ± 0.0086 |
| FFPLSSLIAFLP | 0.6815 ± 0.0025 |
| PPLAMVLYSLFE | 0.556 ± 0.013 |
| EETGWGVVWVVR | 0.703 ± 0.037 |
| TKSWSLNGTYLL | 0.703 ± 0.034 |
| DGVWVRCGTLGF | 0.715 ± 0.078 |
| GGFVISGDVTVG | 0.688 ± 0.038 |
| SFGSAANSRAYI | 0.749 ± 0.042 |
| AWQGRVEGGDGA | 0.665 ± 0.024 |
| CLLYPPYHFYIH | 0.567 ± 0.0066 |
| PPCPAPLSPPLG | 0.676 ± 0.049 |
| IKKLYIICQQMK | 0.666 ± 0.035 |
| GICDAVLFTMLV | 0.682 ± 0.068 |
| GFTAERWRVKGR | 0.674 ± 0.058 |
| PPARTPPGLPRP | 0.723 ± 0.29 |
| WISAPTDRNITN | 0.713 ± 0.0095 |
| AGPAIEGARAPR | 0.7684 ± 0.0022 |
| PKNPRSTNGQLS | 0.67 ± 0.055 |
| ALPIVPDVCFSP | 0.679 ± 0.051 |

| Sequence | protein stability index |
| --- | --- |
| GIQIRIDNQKKN | 0.67 ± 0.025 |
| PPSSPPLQHPPP | 0.598 ± 0.038 |
| HLTIVNYIWEIL | 0.549 ± 0.0059 |
| GGGGAGGGGGRV | 0.676 ± 0.038 |
| CITKERVMVKFV | 0.538 ± 0.012 |
| PPTLHVSPLCPL | 0.607 ± 0.013 |
| SSFLSFSSGCQS | 0.757 ± 0.045 |
| CLSSVSLSNVSV | 0.669 ± 0.068 |
| GPSVPPLPRHEL | 0.728 ± 0.051 |
| VCGGRQGGWGGW | 0.693 ± 0.0098 |
| GRRFCYQASAGQ | 0.642 ± 0.0093 |
| LENIHVLETIFT | 0.6022 ± 0.0054 |
| CLSFCFGISVFD | 0.616 ± 0.017 |
| AGHFRVRWGVWS | 0.651 ± 0.056 |
| PKEQTHKKQHNI | 0.56 ± 0.039 |
| RLRPRRNMIDHA | 0.724 ± 0.057 |
| PFGPRLTQRSRP | 0.697 ± 0.039 |
| ANAPPTASFSPP | 0.6745 ± 0.0014 |
| KKYEKNGKSSQK | 0.685 ± 0.1 |
| CSSLPPFPALPR | 0.701 ± 0.026 |
| SNPGGYCPQGVP | 0.731 ± 0.024 |
